# According to the DeepSol protein solubility set:
# Test: soluble on expression in E. coli; label from the status in PepcDB or PDB records
row,Sequence,soluble on expression in E. coli
1,NSVLFPCKYASSGCEITLPHTEKAEHEELCEFRPYSCPCPGASCKWQGSLDAVMPHLMHQHKSITTLQGEDIVFLATDINLPGAVDWVMMQSCFGFHFMLVLEKQEKYDGHQQFFAIVQLIGTRKQAENFAYRLELNGHRRRLTWEATPRSIHEGIATAIMNSDCLVFDTSIAQLFAENGNLGINVTISMC,soluble
2,MSIQQIIEQKIQKEFQPHFLAIENESHLHHSNRGSESHFKCVIVSADFKNIRKVQRHQRIYQLLNEELNHSIHALALHLFTPEEWKAQNETVPHSTKCAGIGRLEHHHHHH,soluble
3,TSQIRQNYSTEVEAAVNRLVNLHLRASYTYLSLGFFFDRDDVALEGVGHFFRELAEEKREGAERLLEFQNDRGGRALFQDVQKPSQDEWGKTQEAMEAALAMEKNLNQALLDLHALGSARADPHLCDFLESHYLDKEVKLIKKMGNHLTNLRRVAGPQPAQTGAPQGSLGEYLFERLTLKHD,soluble
4,SSGHIEGRHMNKQATEILNEYFYSHLSNPYPSEEAKEELAKKCGITVSQVSNWFGNKRIRYKKN,soluble
5,MKKALSLLTVSALSIGMLSACGPKDSGKKEESKAKKDYDLLVWEDDKKGVGLEPAVKSFEEKYKVKVKVVEMQMTDQVKKLRLDGPAGTGPDVVTLPHDQIGNAVTEGLLSEVKADDAVKSKFTDSSIEAQTYNGKLYGLPKAIETPVFIYNKKLMPKAPETMDELFNFSKEFTKDGKYGFLALGDNFYFANAFMAGMGGYVFGEKDGKPNASDVGLNNSGAVQGAEYLQKWYKEKLFPKGIIGESGGPAADGLFNEGKAASIMNGPWAFQAMEKNGIDYGVAPMPKLPNGQPLKTFVGVKGWHVTSFSKQNDLATKFTEWVTNEENAKIRFEKTKEIPPVKAVMEDPIIKDNEAAKAVATQSENGIPMPNIPEMQEVWKPAGDALQLVVTDKEAPKAALDSAVKQIKGNIEANHSKQK,not soluble
6,MKRVALLAVGSFNPPTIAHLRMLEVARSHLETINTQVVEGIMSPVADSYNNKPTLIKSNFRIQMVRAATKSSDWIRADDWECTRTTWTRTIDVLRHHRELVQEKFGSDVGMMLVVGGDVVDSFTRILPDGSNLWNSSDIRTIITEFGLIVLSREGSNPLNTIQSMPAISEFCDRIIQVKDEVCPSGVSSTRLRAAIMNKKSIKYSTPDEVINFIRENNLYQKI,not soluble
7,MHHHHHHSSGVDLGTENLYFQSMGQCSVLLFPGQGSQVVGMGRGLLNYPRVRELYAAARRVLGYDLLELSLHGPQETLDRTVHCQPAIFVASLAAVEKLHHLQPSVIENCVAAAGFSVGEFAALVFAGAMEFAEGLYAVKIRAEAMQEASEAVPSGMLSVLGQPQSKFNFACLEAREHCKSLGIENPVCEVSNYLFPDCRVISGHQEALRFLQKNSSKFHFRRTRMLPVSGAFHTRLMEPAVEPLTQALKAVDIKKPLVSVYSNVHGHRYRHPGHIHKLLAQQLVSPVKWEQTMHAIYERKKGRGFPQTFEVGPGRQLGAILKSCNMQAWKSYSAVDVL,soluble
8,MSDNAQLSGLCDRFRGFYPVVIDVETAGFNAKTDALLEIAAITLKMDEQGWLMPDMTLHFHVEPFAGANLQPEALAFNGIDPSNPLRGAVSEYEALHAIFKMVRKGIKDSGCSRAIMVAHNATFDHSFMMAAAERASLKRNPFHPFVTFDTAALSGLALGQTVLSKACLAAGMEFDGEKAHSALYDTERTAVLFCEIVNRWKRLGGWPLPLPTDK,not soluble
9,MSFVSVLSIAHKKGRGWPLLDMEIRELCCMLHKVFYLVRCTGIGFDFFRKFVLILFLAYTFKTIDSMASERKLKKQITGAISEVFTDAFLLKLFVKEEKNAEVETILNRILQLQDTTIAKIRCNDGKHNPALVKKYYRRLVDDFKEELSEIVKSISACASDN,not soluble
10,LPKNLMVRLRSNTEPLSKKLRVVADYVLENAHEVQYQTITDLAFNTKTSEATVVRLCRDLGYKGYSDFRMALAVDLSQSANQSQPKMDGDICEVSAQSAVDSLMDTAKLIDRAALNRICELVHGAK,not soluble
11,INALVIGDLMLDQYLWGKAERISPEAPVQVVDVTREEIRIGGAGNVANNLVALGCRVSVASVVGGDENGTILLHAFSGKGIDVTGIVEDPSRTTSRKTRVLASNQQIVRIDRESRDEIGPDNERRIVDYLNAHGDRFNVILVSDYLKGVLTPTLLAEVIAFARKREIPVVVDPKGSDYAKYRGATVLTPNRKEAEAASGIAIRDDESLCRAGERLLETADLTALVITRSEEGMSLFLRGGQVVHIPTYAREVFDVTGAGDTVLAVLGMALAGGVGFADGARLANVAAGVAVGKVGTSTVSPAEIVGSLG,not soluble
12,MSLSKTYHFIGIKGSGMSALALMLHQMGHKVQGSDVEKYYFTQRGLEQAGITILPFDEKNLDGDMEIIAGNAFRPDNNVEIAYADQNGISYKRYHEFLGSFMRDFVSMGVAGAHGKTSTTGMLSHVLSHITDTSFLIGDGTGRGSANAKYFVFESDEYERHFMPYHPEYSIITNIDFDHPDYFTSLEDVFNAFNDYAKQITKGLFVYGEDAELRKITSDAPIYYYGFEAEGNDFVASDLLRSTTGSTFTVHFRGQNLGQFHIPTFGRHNIMNATAVIGLLYTAGFDLNLVREHLKTFAGVKRRFTEKIVNDTVIIDDFAHHPTEIIATLDAARQKYPSKEIVAVFQPHTFTRTIALLDDFAHALNQADAVYLAQIYGSAREVDHGDVKVEDLANKINKKHQVITVENVSPLLDHDNAVYVFMGAGDIQTYEYSFERLLSNLTSNVQEGHHHHHH,soluble
13,MGSDKIHHHHHHMTRLAIVRQKYNPAGGAERFVSRALAALRDKGELEVSLIARRWEPVEGVKAYQVDGPYLGNVWRDWSFARKARRIWLREGFDLVQSHERIPGCDVYRAGDGVHRRWLQLRRQGMSAWGRFVLWCNPYHHYIQRAESEMFHHPRLKRVICNSQMVKREIQQYFGLSDQQIVVIYNGVDLQSFHPGLRSEHRQAMRSQWGVPGDAPLLLYVGSGFERKGVARALKALQANPGAWLMVVGGDKRLARYRRLADELGVDARVVFAGAQGEVRPFYGMADAFILPTLYDPFPNVCVEALASGLPVLTTRQCGAAEFVRQGENGWVCDAFDEEALARSVAEWLSVSRNWPVLAEAARRSVEGLSLGAMAERMLNCYRDLLSVSAVA,not soluble
14,TPQSITRKVARYIPGTVEHLQEQQQYARKIRDVTAQKVDQFSNVFHALSESFATFYQASDEQTDDSEVDLFLSKITEHSCQTCYKKNRCWVQNFDKTYDLMKQVMLETEEKEYASNRRLKKEFQQYCSKSKQVEELIEDELAHHHAHLTLKKKVQDSRRLVAEQLLGVSEVMADFSREIKREREQHFLQEEQIIEALQHFGIEIQHVEIYSLEQGNIDIEMTIPFSGHGESEKIIAPMLSDILEEQILVKAEQHSPHPNGYSHVAFGSTKSYRVSTGAAHAAKGGGLVSGDSYSMMELGARKYAAAISDGMGNGARAHFESNETIKLLEKILESGIDEKIAIKTINSILSLRTTDEIYSTLDLSIIDLQDASCKFLKVGSTPSFIKRGDQVMKVQASNLPIGIINEFDVEVVSEQLKAGDLLIMMSDGIFEGPKHVENHDLWMKRKMKGLKTNDPQEIADLLMEEVIRTRSGQIEDDMTVVVVRIDHNTPKWASIPVPAIFQNKQEI,not soluble
15,MAHHHHHHMKLEEVKDIQKIERIGAHSHIRGLGLNDCLDARYCSEGMIGQMSARKAAGIVLRMIKEGRISGRAILLAGQPGTGKTAIAMGIAKALGEDTPFTHISGSEVYSLEMSKTEALTQAFRRSIGVRVKEESEVIEGEVVEIEIEKFNERDINNKNKKLGKMILKTTEMETLYDLGSKMIEALQKENITAGDVICIDKGTGKITKIGKSFARSKDYDAMDPNTLFVQCPEGELQKRKEVVHTVTLHDIDAINSRTQGFLALFSGDTGEIKNEIREHIDMKINEWQEDEKAEIVPGVLFIDEVHMLDIECFSYLNRALESEQSPIVIMATNRGITHIRGTDYKAPHGIPLDLLDRTLIIPTYPYKHQDILKILEQRAEEEDVDIDEYAKELLCKIASESSLRYALHLITLANLVSKKRKATEVTVQDVRRVYNLFIDVKRSTQYLIEYQNEFMFSELPKEELSVKEEDSSEEKRELHEKNSENSSTSN,soluble
16,MGSDKIHHHHHHMTISQQAVLAATAITKTFGAHVALHTIDIAFRPGEVHALLGENGAGKSTLIKILTGAYTPDAGTVLVDGAPMSFSTPQQAQAAGIGTVYQEVNLLTNMTVADNLFIGRQPRRFGLVDHRTMEREARRILSGYGLDIDVRAELATFSVAVQQIIAIARAVELSGKVLILDEPTASLDRSEVLKLFEIVRGLKARGLAIVFITHFLDQVFELCDHATVLRNGKLVGSQPIDTLNRTTLVRMMLGKDLSLHHDAVAGIEAEVGESLMQFTGYGLDGKVQPFTLTIHKGEVIGVAGLLGSGRTEMARLMFGIDSADKGELTLNGASFKIRSPRQAIDLGFGFCPEDRKADGIFGDLSVRENIIIAMQAKLGWLRTLSYDEQMEIAGQFIEALDIRTASAELPIKLLSGGNQQKAILARWLATDPRFLILDEPTRGIDVGAHAEIVRMISRLREDGLALIVISSELDEVVSYSSRIVVMRDRAMVAELHGADIAPDVIVQTIAAQSNTPAQSEGAFS,not soluble
17,MNTDEYYMRLAMEEAKKAEQIGEVPIGAVIVQDGRVIARAHNLRETEQRAIAHAEILAIDEACRATGSWRLERATLYVTLEPCAMCAGAIVLSRIERVVFGAFDPKGGCAGTLMNLLQESRFNHQVKVVSGVLADECGSLLSQFFRRLREQKRNVGGSANENSVD,not soluble
18,MGSDKIHHHHHHMTQQTDLQSKTNIDPLAMNDSFLAAADALAVDPMFGIPANVREVIARRGNATRLVILGTKGFGAHLMNVRHERPCEVIAAVDDFRYHSGELYYGLPIISTDRFTELATHDRDLVALNTCRYDGPKRFFDQICRTHGIPHLNFEQAVRAFGLQGNVDYRVDDWGADIVRNIPAFQTLAQRLADDYSVQTLYAVLNFHLTCEPEYYHEVERPYSTLYFRSGLLRFSDSEKMVDCGASIGESLAGLIGVTKGKFERVWMIEPDRINLQTLQNVLRRYTDTNFASRITVHGCGAGENTIRVPFNHEGGHGGFVKPADADHEPADLIDVRPIDDIIDDAPTFIKMDIEGSELSALKGARRAISEHKPKLAISAYHRSTDLLDLTNYILSIRPDYQIGLRHHTPDRWDTCLYFY,not soluble
19,MEMVNAEAKQSVPLLTPYKMGRFNLSHRVVLAPLTRQKSYGSVPQPHAILYYSQRTSPGGFLIAEATGVSDTAQGYPDTPGIWTKEHVEAWKPIVDAVHAKGGIFFCQIWHVGRVSNRGFQPRRQAPISCTGKPIMPQMRANGIDEARFTPPRRLSIEEIPGIVNDFRLAARNAMEAGFDGVEIHGAHGYLIDQFMKDKVNDRTDEYGGSLQNRCKFALEVVDAVAKEIGPDRVGIRLSPFADYMESGDTNPEALGLYMVESLNKYGILYCHMIEPRMKTVGEIAACSHTLMPMREAFKGTFISAGGFTREDGNEAVAKGRTDLVAYGRWFLANPDLPKRFQLDAPLNKYNRSTFYTSDPVVGYTDYPSLESTA,soluble
20,MRSRHDTYNNDCDRTLVIMAQRTLAYIVSRRQSASGFTTTARARRWHV,not soluble
21,MLIREIEKKDNEQVETLIRTCLIEFGADKPGCAWTDPDLGRFYEIYQDKKSKYWVVEEEGKIIAGCGIGPLNGAENVCELQKMYSYKEARGTGIAKDLLGLALDFAKKYYDKCYLETFSNMTAANKFYVKNGFKKLEKPLIETDHYACDVWYIKEL,not soluble
22,MADVLTELPGVGPSTADKLIEGGYLDFMKIATATIGELTDIEGISEKAAAKMIMAARDLCDLGFKSGVELLKQRQSVWRLSTGSTELDTVLAGGIESQSVTEFAGMFGSGKTQIMHQTCVNLQMREKIFADLEGVVEEELEAPKAVYIDTEGTFRPERVVQMAEGAGIDGQTVLDNTFVARAYNSDMQMLFAEKIEDLIKGGNNIKLVIIDSLTSTFRNEFTGRGKLAERQQKLGRHMATLNKLADLYNCIVLVTNQVAAKPDAYFGVAEQAIGGHVVGHAATFRFFLRKSKGDKRVAKLYDSPHLPDSEAVFRITEKGIQD,soluble
